Consider one molecule from PMC5392723.

As a reminder, the Kd is a measure of binding affinity in units of concentration. Higher therefore signals weaker binding.

Where a chain is given by its changes, count along the chain named.

Experiment in all cases: EMSA
In general terms: In EMSA bound probe runs differently from free probe, usually more slowly.

One series addresses T1, Glo qRRM1 (Drosophila, UniProt Q9VGH5 49-129).
T1 sequence: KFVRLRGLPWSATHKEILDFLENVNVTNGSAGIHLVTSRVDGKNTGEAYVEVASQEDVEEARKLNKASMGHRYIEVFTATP

Another series has as its target T2, Glo qRRM3 (Drosophila, UniProt Q9VGH5 476-565).
T2 sequence: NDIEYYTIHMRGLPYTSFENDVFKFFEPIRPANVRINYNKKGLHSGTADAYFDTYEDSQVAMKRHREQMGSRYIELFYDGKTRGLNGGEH

The target of another series is T3, Glo qRRM2 (Drosophila, UniProt Q9VGH5 146-225).
T3 sequence: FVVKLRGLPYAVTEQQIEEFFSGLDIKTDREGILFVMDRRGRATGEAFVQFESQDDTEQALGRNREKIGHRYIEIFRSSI

For another series, the target named is T4, Glo qRRM1,2 R52A,K149A (Drosophila, UniProt Q9VGH5 49-225, R52A;K149A).
T4 sequence: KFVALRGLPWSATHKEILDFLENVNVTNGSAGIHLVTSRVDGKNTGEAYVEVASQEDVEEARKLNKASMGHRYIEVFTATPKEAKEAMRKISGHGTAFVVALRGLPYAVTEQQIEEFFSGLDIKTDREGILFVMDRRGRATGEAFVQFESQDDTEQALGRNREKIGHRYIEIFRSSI

The next series concerns the target T5, Glo qRRM1,2 W58A (Drosophila, UniProt Q9VGH5 49-225, W58A).
T5 sequence: T4 sequence with A4R, W10A, A101K

B1: G-tract RNA 5'-AGGGA (ssRNA)
RNA: AGGGA
For B1, the Kd with Glo qRRM1 was 0.18 µM; with Glo qRRM3, 0.17 µM; with Glo qRRM2, 0.62 µM. The binding result with Glo qRRM1,2 R52A,K149A and with Glo qRRM1,2 W58A was “binds” each time.
